Test system: K4 kissing-loop RNA reporter
Test: apparent KD of K4 kissing-loop reporter; higher = weaker reporter binding
Conditions: Eterna round: R107
Method: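 RNA-MaP round R107: designed RNA switches with theophylline, tryptophan, arginine or FMN aptamers are transcribed on-chip within common flanks. They are titrated with a labelled K4 kissing-loop RNA reporter in RNA-MaP buffer (100 mM Tris pH 7.5, 80 mM KCl, 4 mM MgCl2), without ligand or with the indicated ligand. Median apparent KD per design.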

[1] = input ligand: theophylline 20 uM
[2] = input ligand: tryptophan 2.4 mM
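Note: bound reporter read as fluorescence of individual clusters on recovered sequencing chips by microscopy, with normalized cluster intensities fitted with a binding model.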

Sequence | apparent KD of K4 kissing-loop reporter (input ligand: FMN 200 uM) [nM] | apparent KD of K4 kissing-loop reporter (input ligand: arginine 13.2 mM) [nM] | apparent KD of K4 kissing-loop reporter (input ligand: none) [nM] | apparent KD of K4 kissing-loop reporter [1] [nM] | apparent KD of K4 kissing-loop reporter [2] [nM]
UCGGACGCGCACCUAGGCCAAUCCACUGCGAAGGAUAUGCGCGCCAGCAGAAGGUCGUUUUAUGAGUGAUGUUUAGAAACAGCGU [theeternabot_exclusion_KL_FMN_A_25] | 428 | 250 | 305 | 294 | 246
UUAGUCAGAUUAUUAUUAGCCUGCGAGUCUAAGGAUAUCCGAAUUCGGAGAAGGUAGUGAUGUUACUUUGGCAGGCACUGACAUU [AK9 Exc FMN A] | 807 | 357 | 431 | 414 | 351
UAAGAUUCUGUCUCAUUGAGACAGAAUCAACGAGGACCGGUACGGCCGCCACUCGGGUCCUAGAGUGAUGUUCUAAUAAUAUAAU [AK1 SS Tryptophan A] | 283 | 350 | 296 | 369 | 176
AGAUGGCAGUGAUGUUGCUGUUGGAGGGAUAAGGAUAUUGGCUAAACAAGAAGGUAUCGGCGGCAUUGAGGAAUGGGAGGCGCCU [theeternabot_exclusion_KL_FMN_A_7] | 530 | 329 | 510 | 449 | 405
UUUUUAUAAGAGGAUACCAGUACAAAUAAAGUACAUUAAUAGUAGAGUGAUGUUCUAAAGUACCCUUGGCAGCUUAGAGUAAGUU [ExTheophylB.C] | 161 | 281 | 174 | 239 | 115
AAAACUCGGUAGUGAUGUUAUUGAGUGAACAAGGAUAUCUAUGAUAAGAGAAGGUGUAAGUUAAGCGUAUUUCGGCCUGUACAAU [theeternabot_sameState_KL_FMN_A_34] | 115 | 101 | 114 | 106 | 103
GCCAGAGCGCGAAGGAGCGCCGUGACAGGUUGCUGCCGUGGGCAGUGAUGUUGCUCAAUCUGGCAGGUAGGUCGCGUGCUCUGGC | 269 | 219 | 273 | 226 | 248
GGGAGUAUUGCGGCCGCCACUGAGGAAGAAGAAGGCCAUAGUGAUGUUAUGGAGGAAAGGAAGAACAGGACCGGGCAGUAGAUUU [#22 K4 Tryptophan B Same State] | 154 | 157 | 175 | 188 | 127
UGUACCGAGUCAGGAUAUGGCGUCGAAAGACGAAUUCUAGUGAUGUUAGGGAUCUGCGAAAGCAGUCCAGAAGGGACUUGGUACU [FmnBS 26 U36] | 322 | 439 | 607 | 692 | 542
AAGGGCUAGGCGGCCGCCACUGGUUGUGAACACAUACGAGCCAGUGAUGUUGGUAUUGUGUGCGGCAGGACCGGGCCUAGCCGAA [Exclusion - Tryptophan B (Freestyle 23)] | 360 | 299 | 346 | 300 | 322
CGUAGAUACUGAGGAUAUCAGAAAUCUGAUAUCAUCAGAGGUCUGAGUGAUGUUCAGAUGCGACUCUGAGAAGGCAGUAGGAGUC [FMN B Ex t2] | 134 | 107 | 131 | 123 | 115
CGUUUAUAGCAGGAUACCAGUACCCAUAAAGUACGUUAAUAGUAGAGUGAUGUUCUAAAGUACCCUUGGCAGCUUCCCGUGACCG [ExTheophylB.V] | 106 | 158 | 129 | 142 | 83.3
AAUCUCGUCCUGGAUACCAGUCGCACGGUUUGUCAUGUCAGCCAGUGAUGUUGCCUGCAUGACCCUUGGCAGCCAUUCUAUGAAU [theeternabot_exclusion_KL_Theo_B_45] | 284 | 230 | 311 | 334 | 246
UGUGAACAAAAGUAGAGUGGACCACUAUAGCGAGGACCGGUACGGCCGCCACUCGUGCAUGAAUUCAGUGAUGUUGAAAAGAGCU [whbob_EX_Tryp_A_t12] | 258 | 375 | 330 | 364 | 185
UCGAAGGAUGGAAGGAGCGCUCGUCAGUCCUGCGAGUGAUGUUCGUGGGUAAAUAUUCGCGAGCAGGUAGGUCGCCAUCUUGAGA [Laatla] | 135 | 96.7 | 112 | 108 | 129
UGAUACCAGGCGGCCGCCACUCCUACAGGUCAAAGACCUGUAAAGCUGGUUCUCCAGUGAUGUUGGAGGACCGGGCCUGGUAUCU [FiskerMod 29 - Jieux - Exclusion - Tryptophan B] | 206 | 156 | 179 | 150 | 428

Sequence | apparent KD of K4 kissing-loop reporter (input ligand: FMN 200 uM) [nM] | apparent KD of K4 kissing-loop reporter (input ligand: arginine 13.2 mM) [nM] | apparent KD of K4 kissing-loop reporter (input ligand: none) [nM] | apparent KD of K4 kissing-loop reporter [1] [nM] | apparent KD of K4 kissing-loop reporter [2] [nM]
AAGUGUGUGGCGGCCGCCACUAGGAUCCAGUGAUGUUGGAGAUAUCUCGUAAGAGAUAUCCGCCAUAGGACCGGGCCAUAUAGAA [Same State - Tryptophan B (Freestyle 16)] | 862 | 423 | 388 | 161 | 176
UGACUGGACUGAAGGAGCGUUGAAGGAGCGUAAGUAGUGAUGUUGCUUACAGGUAGGUCGCAGCAGGUAGGUCGCAGUCUAGUCU | 67.1 | 43.7 | 63 | 54.3 | 52.6
AUUUAUGUAUCAGGAUAUUAGUGAUGUUUGUUUUUGUUAGUGAUGUUGAUAUUUGUUUUAUGUAUUUAAGAAGGGAUUGAGAUGU [wwewmullin] | 58.2 | 18.5 | 34.7 | 24.2 | 45.2
UCCUAGGCUCGAAAGAGCCUAGGAUUUACUCAGGAUAUCCGGAAACGGAGAAGGGAGUGACUAGUGAUGUUAGGGACUCCCUAUU | 93.1 | 81.7 | 87.9 | 85.2 | 94.4
GCCUACGUAGCAGGAUAUAGGUAAGUGAGUGAUGUUCAAGAGUUCUGGAGUGAUGUUCCAAUCUGACUAGAAGGGCUACGUAGGC | 58.4 | 45.2 | 79.3 | 57.3 | 54.1
AAGUCUCGUUAAUUCGAGGUUGCGAUCGAUACCAGUAGCGAGAGGUACCCUUGGCAGCGAAGUGAGUGAUGUUCAUGAAAGAAGA [KL-XTheoA13] | 59.8 | 101 | 107 | 113 | 68.6
AAAAUUGCGGUCGAAAGAACUUCUUGCAUACGAGGACCGGUACGGCCGCCACUCGAGUCAAGUGAUGUUUGAUAAUCUAUUAUUA [JR_ExcTryptoA_Sub012] | 151 | 225 | 215 | 296 | 212
UGGGAUGUUAAAGGAUAUAGCAGGUGAUAUAAGAAAGUGAGUGAUGUUUAUGUAGAUGAUGAUAUGUUAGAAGGUUAACAAAACG [abcdefghi] | 427 | 258 | 340 | 318 | 282
UAACUGCAGUGAUGUUGCAGAUGUCCUGACUAGGAUAUCAGGAAACUGAGAAGGAGUCCCUUCUACACUGCAGAGAAGGAGGACA [[K1]-[K2]-[F1]'-[F1]-[F2]-[F2]'-[K]'-[F]''_Design1] | 283 | 125 | 145 | 125 | 139
AGUAAUGUCACGGCCGCCACUCUUUAUUGUUUUUAUAGUUAUAAAUCUUGCCAGUGAUGUUGGUAGAGGACCGGGUGACUUAAUA [#26 K4 Tryptophan B Same State] | 222 | 208 | 245 | 199 | 194
GGAGGAGAAUAUGAUACCAGCAGAGAGAGAUACGAAGUAUAGUGAUGUUAUAUGAGAGAAUGCCCUUGGCAGCAUAAGACGCAGG [#08 K4 Theophylline B Same State] | 86 | 83.3 | 116 | 95 | 84.8
CGUGCCCAGCCGGAUACCAGUGACCCGCUGGGAACCGCGGGCCCAGAGUGAUGUUCGGGACACCCUUGGCAGCCGCCUGGGCGGU [#2 Same State - Theophylline B Attempt #11 (HarryS)] | 1170 | 343 | 584 | 1190 | 791
AGACCUCAGUGAUGUUGAGGUAACACUGAUACCAGCGACUUAAUUCGCCCUUGGCAGCAGUCCACCGAGGUAUCUGAUUAGGUCA [#24 K4 Theophylline A Exclusion] | 171 | 173 | 179 | 273 | 155
CCUCUCCUUGAUAGUGAUGUUAUCAAGGACAAGGAUAUCAUCUCAAUGAGAAGGUGUCCUUGAUAACAUGGAGGUCUGAAACAGA [Omei KL FMN A Exc C v1] | 138 | 126 | 136 | 125 | 122
GUAGCACAGUCGGCCGCCACUGUCGGUUCUCCAGUGAUGUUGGAGUUAGUUCGUCGCAGUUCAAACAGGACCGGGACCAUUCCUU [theeternabot_exclusion_KL_Trp_B_26] | 125 | 135 | 127 | 132 | 121

— the supplement of paper PMC9170038
